Four molecules from publication PMC5482573 (eLife, 2017) can be followed below.

B1: R. norvegicus ArfGAP2, full-length, N-terminally His-tagged (enzyme)
chain: not shown
notes: PDB 2P57 was fitted for it; source: insect cells, purified (Ni-NTA, gel filtration)
B2: β’-COP (M. musculus, in recombinant coatomer) (natural protein)
chain: MPLRLDIKRKLTARSDRVKSVDLHPTEPWMLASLYNGSVCVWNHETQTLVKTFEVCDLPVRAAKFVARKNWVVTGADDMQIRVFNYNTLERVHMFEAHSDYIRCIAVHPTQPFILTSSDDMLIKLWDWDKKWSCSQVFEGHTHYVMQIVINPKDNNQFASASLDRTIKVWQLGSSSPNFTLEGHEKGVNCIDYYSGGDKPYLISGADDRLVKIWDYQNKTCVQTLEGHAQNVSCASFHPELPIIITGSEDGTVRIWHSSTYRLESTLNYGMERVWCVASLRGSNNVALGYDEGSIIVKLGREEPAMSMDANGKIIWAKHSEVQQANLKAMGDTEIKDGERLPLAVKDMGSCEIYPQTIQHNPNGRFVVVCGDGEYIIYTAMALRNKSFGSAQEFAWAHDSSEYAIRESNSIVKIFKNFKEKKSFKPDFGAESIYGGFLLGVRSVNGLAFYDWENTELIRRIEIQPKHIFWSDSGELVCIATEESFFILKYLSEKVLAAQETHEGVTEDGIEDAFEVLGEIQEIVKTGLWVGDCFIYTSSVNRLNYYVGGEIVTIAHLDRTMYLLGYIPKDNRLYLGDKELNIVSYSLLVSVLEYQTAVMRRDFSMADKVLPTIPKEQRTRVAHFLEKQGFKQQALTVSTDPEHRFELALQLGELKIAYQLAVEAESEQKWKQLAELAISKCQFSLAQECLHHAQDYGGLLLLATASGNASMVNKLAEGAERDGKNNVAFMSYFLQGKLDACLELLIRTGRLPEAAFLARTYLPSQVSRVVKLWRENLSKVNQKAAESLADPTEYENLFPGLKEAFVVEEWVKETHADLWPAKQYPLVTPNEERNVMEEAKGFQPSRPTAQQEPDGKPASSPVIMASQTTHKEEKSLLELEVDLDNLELEDIDTTDINLDEDILDD
notes: beta'-COP, coatomer subunit beta', M. musculus; Stood in the assays as a subunit of the whole heptameric coatomer; source: SF9 insect cells (baculovirus), as part of recombinant coatomer, purified
B4: β-COP (M. musculus, in recombinant coatomer) (natural protein)
chain: MTAAENVCYTLINVPMDSEPPSEISLKNDLEKGDVKSKTEALKKVIIMILNGEKLPGLLMTIIRFVLPLQDHTIKKLLLVFWEIVPKTTPDGRLLHEMILVCDAYRKDLQHPNEFIRGSTLRFLCKLKEAELLEPLMPAIRACLEHRHSYVRRNAVLAIYTIYRNFEHLIPDAPELIHDFLVNEKDASCKRNAFMMLIHADQDRALDYLSTCIDQVQTFGDILQLVIVELIYKVCHANPSERARFIRCIYNLLQSSSPAVKYEAAGTLVTLSSAPTAIKAAAQCYIDLIIKESDNNVKLIVLDRLVELKEHPAHERVLQDLVMDILRVLSTPDLEVRKKTLQLALDLVSSRNVEELVIVLKKEVIKTNNVSEHEDTDKYRQLLVRTLHSCSVRFPDMAANVIPVLMEFLSDSNEAAAADVLEFVREAIQRFDNLRMLIVEKMLEVFHAIKSVKIYRGALWILGEYCSTKEDIQSVMTEVRRSLGEIPIVESEIKKEAGELKPEEEITVGPVQKLVTEMGTYATQSALSSSRPTKKEEDRPPLRGFLLDGDFFVAASLATTLTKIALRYVALVQEKKKQNSFVAEAMLLMATILHLGKSSLPKKPITDDDVDRISLCLKVLSECSPLMNDIFNKECRQSLSQMLSAKLEEEKLSQKKESEKRNVTVQPDDPISFMQLTAKNEMNCKEDQFQLSLLAAMGNTQRKEAADPLASKLNKVTQLTGFSDPVYAEAYVHVNQYDIVLDVLVVNQTSDTLQNCTLELATLGDLKLVEKPSPLTLAPHDFANIKANVKVASTENGIIFGNIVYDVSGAASDRNCVVLSDIHIDIMDYIQPATCTDAEFRQMWAEFEWENKVTVNTNMTDLNDYLQHILKSTNMKCLTPEKALSGYCGFMAANLYARSIFGEDALANVSIEKPVHQGPDAAVTGHIRIRAKSQGMALSLGDKINLSQKKTSL
notes: beta-COP, coatomer subunit beta, M. musculus. numbers count on: the construct with its N-terminal His-tag, shifted by 15 residues relative to Q9JIF7; Stood in the assays as a subunit of the whole heptameric coatomer; The coatomer of the photo-cross-linking is called only 'coatomer'; source: SF9 insect cells (baculovirus), as part of recombinant coatomer, purified

What all share (details): both partners purified
Experiment [1] addresses B2. Nature of the experiment: cryo-EM structure; COPI coated vesicles with GTPγS incubated 15–20 min with a 10 molar excess of ArfGAP2; subtomogram averaging, difference map and classification; class with ArfGAP2 at 10.1 Å.
The target of experiment [2] is B4. Described as above.
The target of experiment [3] is T1, α-COP (M. musculus, in recombinant coatomer) (M. musculus, UniProt Q8CIE6 1-1224).
T1 construct: alpha-COP, coatomer subunit alpha, M. musculus; Stood in the assays as a subunit of the whole heptameric coatomer; source: SF9 insect cells (baculovirus), as part of recombinant coatomer, purified
T1 sequence: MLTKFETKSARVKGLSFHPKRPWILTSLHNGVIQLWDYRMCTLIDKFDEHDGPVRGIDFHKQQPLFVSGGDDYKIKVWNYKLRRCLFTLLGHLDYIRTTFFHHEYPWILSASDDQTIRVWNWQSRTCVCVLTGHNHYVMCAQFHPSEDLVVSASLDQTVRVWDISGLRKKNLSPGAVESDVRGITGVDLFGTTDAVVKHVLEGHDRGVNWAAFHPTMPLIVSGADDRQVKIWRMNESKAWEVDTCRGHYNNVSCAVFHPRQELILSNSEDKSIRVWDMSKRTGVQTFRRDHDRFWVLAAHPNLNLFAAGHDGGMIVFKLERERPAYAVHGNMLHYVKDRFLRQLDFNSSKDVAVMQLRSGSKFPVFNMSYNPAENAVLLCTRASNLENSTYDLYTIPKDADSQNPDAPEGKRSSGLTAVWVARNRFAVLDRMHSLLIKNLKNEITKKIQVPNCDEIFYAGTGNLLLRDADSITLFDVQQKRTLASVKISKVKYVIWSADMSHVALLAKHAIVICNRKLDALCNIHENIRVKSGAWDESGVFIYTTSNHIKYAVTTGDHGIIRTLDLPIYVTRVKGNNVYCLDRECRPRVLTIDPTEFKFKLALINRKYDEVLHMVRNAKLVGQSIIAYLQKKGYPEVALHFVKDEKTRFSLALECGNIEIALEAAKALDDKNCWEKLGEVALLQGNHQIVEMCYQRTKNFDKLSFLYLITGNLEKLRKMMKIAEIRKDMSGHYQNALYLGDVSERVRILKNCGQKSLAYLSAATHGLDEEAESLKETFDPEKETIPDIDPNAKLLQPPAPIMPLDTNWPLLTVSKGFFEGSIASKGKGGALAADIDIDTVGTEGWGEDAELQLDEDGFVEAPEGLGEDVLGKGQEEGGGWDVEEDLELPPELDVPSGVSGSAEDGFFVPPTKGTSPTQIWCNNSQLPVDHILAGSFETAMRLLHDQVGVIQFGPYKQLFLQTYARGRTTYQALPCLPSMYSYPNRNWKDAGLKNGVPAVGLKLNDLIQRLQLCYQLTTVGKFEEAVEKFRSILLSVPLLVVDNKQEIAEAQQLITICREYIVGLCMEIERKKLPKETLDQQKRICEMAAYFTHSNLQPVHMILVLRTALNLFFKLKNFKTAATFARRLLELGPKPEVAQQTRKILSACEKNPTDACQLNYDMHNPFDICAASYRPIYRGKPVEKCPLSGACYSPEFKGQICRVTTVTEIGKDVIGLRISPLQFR
Briefly: cryo-EM structure; cryo-electron tomography and subtomogram averaging of the COPI leaf, 9.2 Å; coat assembled in vitro from coatomer (840 nM), Arf1 (2 μM), GTPγS, ARNO and GUVs, 37°C, 50 mM HEPES pH 7.4, 50 mM KOAc, 1 mM MgCl2.

Experiment [4] deals with B4. The experiment is described as above.
Experiment [5] deals with B1. Briefly: cryo-EM structure; COPI coated vesicles with GTPγS incubated 15–20 min with a 10 molar excess of ArfGAP2; subtomogram averaging, difference map and classification; class with ArfGAP2 at 10.1 Å.

For the molecule B1, the binding result in experiment [1] and in experiment [2] was “binds” in each case.
In the case of B2, the binding result in experiment [3] and in experiment [4] was “binds” in each case.

B3: S. cerevisiae myristoylated Arf1 (natural protein)
chain: MGLFASKLFSNLFGNKEMRILMVGLDGAGKTTVLYKLKLGEVITTIPTIGFNVETVQYKNISFTVWDVGGQDRIRSLWRHYYRNTEGVIFVVDSNDRSRIGEAREVMQRMLNEDELRNAAWLVFANKQDLPEAMSAAEITEKLGLHSIRNRPWFIQATCATSGEGLYEGLEWLSNSLKNST
modifications: myristoylated
notes: Arf1 (ADP-ribosylation factor 1), S. cerevisiae, loaded with GTPγS on membranes; also called γArf1 (central); βArf1 (peripheral); source: E. coli, purified
For the molecule B3, the binding result in experiment [4] and in experiment [5] was “binds” in each case.
In the case of B4, the binding result in experiment [3] was “binds”.
